Results as given in the supplement of paper PMC9170038.

test system: K4 kissing-loop RNA reporter; assay: apparent KD of K4 kissing-loop reporter; higher = weaker reporter binding; details: Eterna round: R107; input ligand: theophylline 20 uM
Protocol: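 RNA-MaP round R107: designed RNA switches with theophylline, tryptophan, arginine or FMN aptamers are transcribed on-chip within common flanks. They are titrated with a labelled K4 kissing-loop RNA reporter in RNA-MaP buffer (100 mM Tris pH 7.5, 80 mM KCl, 4 mM MgCl2), without ligand or with the indicated ligand. Median apparent KD per design.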
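Note: bound reporter read as fluorescence of individual clusters on recovered sequencing chips by microscopy, with normalized cluster intensities fitted with a binding model.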

Row | Sequence | apparent KD of K4 kissing-loop reporter [nM]
1 | UGACUGGAUGGAAGGAGCGCUAAACUCCUAGUGAUGUUAGGGACAUGAGGCAAAGCCUUGAAGCAGGUAGGUCGCCAUCUAGUCU [FiskerMod 27 - Jieux - Same State - Arginine B] | 176
2 | UGAUAGGACAGAAGGAGCGGUAGUGAUGUUACCAAAAGUAUAAGGUGUCAAAAGACACCCUGCCAGGUAGGUCGCUGUCCUAUCU | 198
3 | AAGCAGUCUCUCGAAGCCAUCGAAGAUGGGCGAGGACCGGUACGGCCGCCACUCGGAGUGAUGUUCCGAAGACUGCAAAAUAAAA [MatMod 10 - Jieux - Exclusion - Tryptophan A] | 243
4 | AGUGCACUGUCAGGAUAUAUACAGUGAUGUUGUGUAUGUCAGCAAGUCAAAGACUUGCUUUUCUGUGUAGAAGGGACUGUGUACA [Omei KL FMN B Exc A v2] | 141
5 | UGAUAGGACAGAAGGAGCGGUAGUGAUGUUACCAAAAGGGUAAGGUGUCAAAAGACACCCUACCAGGUAGGUCGCUGUCCUAUCU | 84.3
6 | GAUGUAGAGGCGGCCGCCACUAGUGAUGUUAGUGAUGUUUGAUACUGUAUAUAUCGGCGUGUAGAUAGGACCGGGCCUGAUGGAG [dbbdmullin] | 225
7 | UCUGGUAUAUCUGAUACCAGAGUAUAGUAUCAAUUGAAUAUGGAGUGAUGUUCCAUACAACUCCCUUGGCAGCAGAUCUUCCUCU [Same State Theophylline B GF 23] | 193
8 | UGGAUAUAGUUUAGUCUGGUGAGGUCAGAUACCAGACUAGCGAUAGUCCCUUGGCAGCUGAUUAUGAUUGAGUGAUGUUCAAUCG [Theo A Ex t9] | 157
9 | GAAUUAAUGUCUUUAAUAUAAUAAUCAGAUACCAGUGAUUUGUGACACCCUUGGCAGCUGUAUAGAGUGAUGUUCUUAUACAUAA [#12 K4 Theophylline A Exclusion] | 509
10 | AACGUGGCCAAAGGAUAUCUCCCUACGUCGUUGCAUCUACCUCUGUUUGCUCUGAGUGAUGUUUGGAGAGAAGGUUGAGGCGAUU [theeternabot_exclusion_KL_FMN_B_29] | 513
11 | CCAAGCGUCAGCGAUACCAGAAUUCUAGUGAUGUUAGGUUCUGUCAUUGUACUAGCAGUGUUCCCUUGGCAGCGCGUGAUAGGCA [theeternabot_exclusion_KL_Theo_B_16] | 173

same assay, conditions: Eterna round: R107; input ligand: tryptophan 2.4 mM

Row | Sequence | apparent KD of K4 kissing-loop reporter [nM]
12 | GUACGCUCUCGAGUGAUGUUCGGUAAUAGAGAGGAUAUCGCUUUUGCGAGAAGGCUCUGAAUGAGGAAACUCGUUCUGAGUGUAC [FMN A 19] | 419
13 | UGCCGGAAGGCGAGCGCUCCCACUCCGGAAGGAGCGCCCGUAAGGGCAGGUAGGUCGCCGGAGUGAUGUUCCGGUGGAGGGCUCG [#2 Exclusion - Arginine A Attempt #22 (Inspired by Omei)] | 244
14 | AACCUUGUAGUGAUGUUGCAAGGCGCUGAUACCAGUCACAGCCACGACCCUUGGCAGCAGUGGCGUUCAUGAUAAAAUAGAUUAA [theeternabot_sameState_KL_Theo_A_49] | 39.9
15 | UAUUGAUUGUCAGGAUAUCGUAAACGAGUGAUGUUCGUAAAUCGACGAUAGUCGAUAUGAUCUGAACGAGAAGGGACAUUAUUUA [JR_SSFMNB_Sub010] | 305
16 | AGUACAAUGGCGGCCGCCACUCAAUGGGCGACCGAAAGGUCGCAUCACUCAGUGAUGUUGAGUGAGAGGACCGGGCCUUUGUACA [Omei KL Tryp B SS B v8] | 270
17 | CGGAUGUAGUGAUGUUAUAUUAGAUGUAGACGAGGACCGGUACGGCCGCCACUCGUGACGGCUGCUAGCGCGUUGCGAGGUUUGC [ExTryptoA.Cn] | 543
18 | AGAUAGGGCUGAAGGAGCGUCGGAGAAGAGAAGAAGGAAUCCAGUGAUGUUGGAUAGAUCCGACAGGUAGGUCGCAGUUUUAUGA [hbob_SS_Arginine_B_2t139] | 124
19 | UAUAUAGUGACGGCCGCCACUAUAUUAAUGUUUAGGUUAGAGUGAUGUUUUGAUUAAUAUUUUUAUAGGACCGGGUUAUAUGUUA [xerrmullin] | 428
20 | UAUCGAGUGAUGUUCGAUGUAGUGCAUUCAGAGGAUAUAGGAUGGGCUAGAAGGCUGAAAAGUGCUUCGAGUGAUGUUCGAAGAU [Exclusion FMN A GF 5] | 65.3
21 | CGAGUCGGUUCAGAUACCAGCCAAUUAGAGUCGAGUGAUGUUCGACAAUGAACGUCCAAAGGCCCUUGGCAGCUGGAUUGGGAAC [Same State Theophylline B GF 20] | 171
22 | AGCUGUGGCAGAAGGAGCGGCAGUUAUUCUGAUAGUACUCUGAGUGAUGUUCAGAACGACUGUCAGGUAGGUCGCUGUCACAGCU [#02 K4 Arginine B Exclusion] | 218
23 | CGCAGUGAUGUUGCUAUUAUUCUUGAUUAACGAGGACCGGUACGGCCGCCACUCGGUUUCUAUCUGAUCCAGCGUUUUGUUGAGU [#23 K4 Tryptophan A Exclusion] | 335
24 | UGACUGGACUGAAGGAGCGGGCGAGACAAAGUCUCGAACUGCUAGUGAUGUUAGCAAAUAACCCAGGUAGGUCGCAGUCUAGUCU | 110
25 | CGUGUAAUGUGGAGAUUUGAAAAGGCGCAUCGAGGACCGGUACGGCCGCCACUCGCUACGAGCUAGUGAUGUUGGCUCGUUCGGA [theeternabot_sameState_KL_Trp_A_23] | 194
26 | AAGGCACGGCUUCGGCCGUGCCAAAUAGAUACCAGCAUAAUAAUAUGCCCUUGGCAGCUAAAUAUAAAUUCAGUGAUGUUGGAUA [SS Theo A Tesla 2.2] | 546
27 | UGAUACCAGACUGAUACCAGCCAGUGAUGUUGGCUAAGCCAAAUAGGAGUCAAAGACUCCGGCCCUUGGCAGCAGUCUGGUAUCU [TheoBX 5 #SwitchBubble #StaticStem] | 127
28 | GAAGGUCAAAGACCUUCGUGCACAUCUGAUACCAGUCGCGAAAGCGACCCUUGGCAGCAGGGCAGUGAUGUUGCCAGUGCACAAA [Omei KL Theo A SS A v4] | 253
29 | UGACACUCAACGGCCGCCACUACCGUCGCCGAAUUCCGCAGUGAUGUUGCGAUCCUCCGAUUGUCUAGGACCGGGUUGUUUGGGC [theeternabot_exclusion_KL_Trp_B_43] | 162
30 | AUCCAUAGUGAUGUUGUGAGCGGAGGCACCAAGGAUAUUGCCAGCCCAAGAAGGUGGGUCCCACACACCAGGCAUACAAGUCCGG [theeternabot_exclusion_KL_FMN_A_43] | 837
31 | GGAUAGGAUAGAGGAUAUGGUAGUGAUGUUACCAAACUGGUUAAACAUGUCAGAAAACUGGCAUGACCAGAAGGCUGUCCUAUCG [FmnBX 27 U9] | 69.8
32 | UGGAGUUGACGAAAAGUCAACUCCUGAGAUCGAGGACCGGUACGGCCGCCACUCGAGCUAACUGCGAGUGAUGUUCGAAAAUAAA [#OpenEnded 1 - Direct theophylline transfer] | 97.1

Row | Sequence | apparent KD of K4 kissing-loop reporter [nM]
33 | AAAAUAAACCAGUGAUGUUGGUGUCCGGAUACCAGCGAUAAUCAUCGCCCUUGGCAGCCGCGGACGUACAAAAUAAGUACGUCCU [MatMod 13 - Jieux - Same State - Theophylline A] | 256
34 | AGACUACCACACUGUCAAUAGACAGUGUACUAGGAUAUGCUGAUAAGCAGAAGGAGUGAUGUUCCUAGGUAGUCAAUAAAAUAAU [FmnAX 13 U28] | 574
35 | UCCUAGGCUCGAAAGAGCCUAGGAUGGACUCAGGAUAUCCGGAAACGGAGAAGGGAGUCACUAGUGAUGUUAGGGACUCCCUAAC | 109
36 | AAUAUAGUGAUGUUAUAUAAGAAGGAGUUACGAGGACCGGUACGGCCGCCACUCGAAACGAGUGAAGAAGGAGGAAGGAGGAGGA [SSTRyptA.A] | 366
37 | UUAUAUACGAGUGAUGUUCGUUAUUUAUCAGAGGAUAUGCUUAAAUGCAGAAGGCUGUAUUUCUAUUUGAUAUUAAAUUUUAUAA [JR_Nu3_ExcFMNA_Sub026] | 57.3
38 | UGGACCUGACUCGAUAAGAGUCAAUGAGAUACCAGUGACGAAAGUCACCCUUGGCAGCUCCUGCCAGUGAUGUUGGUAAGGUCCU [#SwitchBubble 4 #StaticStem] | 299
39 | UGACAUUGCUCAGAUACCAGACAUGAGCAUCAGCCAUGUGCCAACGUACAAAUAAUAAAUGUCCCUUGGCAGCUGAGCAAUGUCU [TheoBX 15] | 59.9
40 | UACAUCGAGCAGAGUGAUGUUUUGUGCGAUACCAGCAAGUGCAAGUGCCCUUGGCAGCGCAAGCGGUUGUAUGUAGGACCGGACG [theeternabot_exclusion_KL_Theo_A_21] | 432
41 | GCAGUGAUGUUGCGGAUGUACAGUGGCGUGCGAGGACCGGUACGGCCGCCACUCGUACAGAACAAGCUAAUACAUCGAUAGGUGA [whbob_SS_Tryp_A_m1] | 355
42 | CUCUAGGCGCUCGCGUGAGUGAUGUUUACGCGAGGACCGGUACGGCCGCCACUCGCAGACUGGGUGUAAGCGGAGCUGUAUGCCC [theeternabot_exclusion_KL_Trp_A_12] | 223
43 | UGACUGGAUGGAAGGAGCGCUAAACUCCUAGUGAUGUUAGGGACAUGAGGCAAAGCCUUGAAGCAGGUAGGUCGCCAUCUAGUCU [FiskerMod 27 - Jieux - Same State - Arginine B] | 167
44 | UGAUAGGACAGAAGGAGCGGUAGUGAUGUUACCAAAAGUAUAAGGUGUCAAAAGACACCCUGCCAGGUAGGUCGCUGUCCUAUCU | 152
45 | AAGCAGUCUCUCGAAGCCAUCGAAGAUGGGCGAGGACCGGUACGGCCGCCACUCGGAGUGAUGUUCCGAAGACUGCAAAAUAAAA [MatMod 10 - Jieux - Exclusion - Tryptophan A] | 308
46 | AGUGCACUGUCAGGAUAUAUACAGUGAUGUUGUGUAUGUCAGCAAGUCAAAGACUUGCUUUUCUGUGUAGAAGGGACUGUGUACA [Omei KL FMN B Exc A v2] | 148
47 | UGAUAGGACAGAAGGAGCGGUAGUGAUGUUACCAAAAGGGUAAGGUGUCAAAAGACACCCUACCAGGUAGGUCGCUGUCCUAUCU | 82.8
48 | GAUGUAGAGGCGGCCGCCACUAGUGAUGUUAGUGAUGUUUGAUACUGUAUAUAUCGGCGUGUAGAUAGGACCGGGCCUGAUGGAG [dbbdmullin] | 201
49 | UCUGGUAUAUCUGAUACCAGAGUAUAGUAUCAAUUGAAUAUGGAGUGAUGUUCCAUACAACUCCCUUGGCAGCAGAUCUUCCUCU [Same State Theophylline B GF 23] | 124
50 | UGGAUAUAGUUUAGUCUGGUGAGGUCAGAUACCAGACUAGCGAUAGUCCCUUGGCAGCUGAUUAUGAUUGAGUGAUGUUCAAUCG [Theo A Ex t9] | 157
51 | GAAUUAAUGUCUUUAAUAUAAUAAUCAGAUACCAGUGAUUUGUGACACCCUUGGCAGCUGUAUAGAGUGAUGUUCUUAUACAUAA [#12 K4 Theophylline A Exclusion] | 279
52 | AACGUGGCCAAAGGAUAUCUCCCUACGUCGUUGCAUCUACCUCUGUUUGCUCUGAGUGAUGUUUGGAGAGAAGGUUGAGGCGAUU [theeternabot_exclusion_KL_FMN_B_29] | 387
53 | CCAAGCGUCAGCGAUACCAGAAUUCUAGUGAUGUUAGGUUCUGUCAUUGUACUAGCAGUGUUCCCUUGGCAGCGCGUGAUAGGCA [theeternabot_exclusion_KL_Theo_B_16] | 138
